# Assay results as given in US20260217820A1 (ERASMUS UNIVERSITY MEDICAL CENTER ROTTERDAM, published 2026).
# Assays:
# [1] = target: T1, CD117 protein (SinoBiological, cat #11996-H08H) (UniProt P10721-2 26-516); assay: ELISA, CD117 protein coated
# T1 construct: Bought reagent
# [2] = target: T1, CD117 protein (SinoBiological, cat …); assay: ELISA on plate-coated CD117 protein, detection with anti-human IgG (Fc specific)-peroxidase, OD at 450 nm
# [3] = target: T2, Human CD16a (V176) protein (NovoProtein, cat #C441) (human, UniProt P08637 17-208); assay: BLI (Octet Red 96e), CD16a (V176) on HIS1K sensors, antibody in solution, 1:1 global fit
# T2 construct: also called CD16a receptor
# [4] = target: T3, Rhesus Macaque CD117 on CD34-enriched bone marrow hematopoietic stem cells (Rhesus Macaque, UniProt F6V858 26-976); assay: flow cytometry on Rhesus Macaque CD34-enriched bone marrow cells gated on CD34+ CD117+, R-Phycoerythrin goat anti-human F(ab')2 detection
# T3 construct: whole, on cells; also called CD117 of Rhesus Macaque; Rhesus Macaque CD117-positive hematopoietic stem cells
# T2 sequence (P08637 17-208 F176V limits assumed): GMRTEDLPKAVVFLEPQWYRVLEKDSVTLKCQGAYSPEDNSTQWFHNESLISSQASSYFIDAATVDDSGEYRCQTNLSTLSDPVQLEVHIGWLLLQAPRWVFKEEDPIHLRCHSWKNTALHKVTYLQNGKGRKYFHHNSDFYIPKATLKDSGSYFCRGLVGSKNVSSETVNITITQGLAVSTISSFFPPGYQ
# T1 sequence (P10721 other isoform, or with tags, fused parts or gaps H08H H08H limits assumed): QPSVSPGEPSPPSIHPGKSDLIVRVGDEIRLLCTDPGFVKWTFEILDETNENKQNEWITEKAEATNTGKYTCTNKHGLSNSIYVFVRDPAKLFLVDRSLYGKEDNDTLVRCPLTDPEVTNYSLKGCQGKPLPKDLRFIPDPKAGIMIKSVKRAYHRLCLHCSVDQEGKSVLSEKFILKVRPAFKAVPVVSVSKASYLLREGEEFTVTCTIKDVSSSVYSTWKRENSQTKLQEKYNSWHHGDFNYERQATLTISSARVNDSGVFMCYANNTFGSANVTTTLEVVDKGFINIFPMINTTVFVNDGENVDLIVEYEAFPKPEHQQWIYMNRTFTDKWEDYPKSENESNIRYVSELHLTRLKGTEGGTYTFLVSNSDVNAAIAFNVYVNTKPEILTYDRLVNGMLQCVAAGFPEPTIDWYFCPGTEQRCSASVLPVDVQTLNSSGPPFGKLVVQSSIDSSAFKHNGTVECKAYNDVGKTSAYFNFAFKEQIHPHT
Binder,EC50 [1],EC50 (read off the curve) [2],Kd [3],koff [3],kon [3],binding result [4]
"recombinant monoclonal antibody PR004382 (antibody, human IgG1, kappa, compared with a human IgG1 isotype control; also called PR004382 anti-CD117 antibody; copies: 2 + 2) heavy: not shown light: DIVMTQSPDSLAVSLGERATINCRASESVDIYGNSFMHWYQQKPGQPPKLLIYLASNLESGVPDRFSGSGSGTDFTLTISSLQAEDVAVYYCQQNNEDPYTFGGGTKVEIKRTVAAPSVFIFPPSDEQLKSGTASVVCLLNNFYPREAKVQWKVDNALQSGNSQESVTEQDSKDSTYSLSSTLTLSKADYEKHKVYACEVTHQGLSSPVTKSFNRGEC",15.5 pM,~100 pM,27200 pM,0.00933 s⁻¹,343000 M⁻¹ s⁻¹,
"PR001310 anti-HELxCD3 control Bispecific T cell engager (bispecific antibody, Control engager; HEL = hen egg lysozyme; Same CD3 arm as PR004384; also called control anti-HELxCD3 Bispecific T cell engager) DIVLTQSPAIMSASPGEKVTMTCSASSSVNYMYWYQQKSGTSPKRWIYDTSKLASGVPVRFSGSGSGTSYSLTISSMETEDAAEYYCQQWGRNPTFGGGTKLEIKRTVAAPSVFIFPPSDEQLKSGTASVVCLLNNFYPREAKVQWKVDNALQSGNSQESVTEQDSKDSTYSLSSTLTLSKADYEKHKVYACEVTHQGLSSPVTKSFNRGECEVQLVESGGGLVQPGGSLKLSCAASGFTFNTYAMNWVRQASGKGLEWVGRIRSKYNNYATYYADSVKDRFTISRDDSKSTLYLQMNSLKTEDTAVYYCVRHGNFGNSYVSWFAYWGQGTLVTVSSASTKGPSVFPLAPSSKSTSGGTAALGCLVKDYFPEPVTVSWNSGALTSGVHTFPAVLQSSGLYSLSSVVTVPSSSLGTQTYICNVNHKPSNTKVDKKVEPKSC heavy: EVQLQQSGAELMKPGASVKISCKASGYTFSDYWIEWVKQRPGHGLEWIGEILPGSGSTNYHERFKGKATFTADTSSSTAYMQLNSLTSEDSGVYYCLHGNYDFDGWGQGTTLTVSSASTKGPSVFPLAPSSKSTSGGTAALGCLVKDYFPEPVTVSWNSGALTSGVHTFPAVLQSSGLYSLSSVVTVPSSSLGTQTYICNVNHKPSNTKVDKKVEPKSC light: QAVVTQEPSLTVSPGGTVTLTCRSSTGAVTTSNYANWVQQKPGQAPRGLIGGTNKRAPWTPARFSGSLLGDKAALTLLGAQPEDEAEYFCALWYSNLWVFGGGTKLTVLGQPKAAPSVTLFPPSSEELQANKATLVCLISDFYPGAVTVAWKADSSPVKAGVETTTPSKQSNNKYAASSYLSLTPEQWKSHRSYSCQVTHEGSTVEKTVAPTECS",,,,,,no binding
